Source: publication PMC8960791 (Communications Biology, 2022)
Substitutions are numbered along the chain they refer to.

B1: CA120 (antibody, V domains shown)
VH: EVQLVESGGGLVQPGGSLRLSCVASGFTFSTYSMNWVRQAPGKGLEWVSYISSSSSTIYYADSVKGRFTISRDNAKNSLYLQMNSLRAEDTAVYYCARDPGWLSWFDPWGQGTLVTVSS
VL: RSLPAPWSLSPGERATLSCRASQSVSNSYLAWYQQKPGQAPRLLIYGASSRATGIPDRFSGSGSGTDFTLTISRLEPEDFAVYYCQQYGGSPRTFGQGTKVEIK
B2: CA135 (antibody, V domains shown)
VH: B1 VH
VL: not shown
B3: CA137 (antibody, V domains shown)
VH: B1 VH
VL: not shown
B4: CA132 (antibody, V domains shown)
VH: B1 VH
VL: EIVLTQSPPGERATLSCRASQSVSNSYLAWYQQKPGQAPRLLIYGASSRATGIPDRFSGSGSGTDFTLTISRLEPEDFAVYYCQQYGGSPRTFGQGTKVEIK
B5: CA133 (antibody, V domains shown)
VH: B1 VH with T31S
VL: not shown
B6: CA125 (antibody, V domains shown)
VH: EVQLVESGGGLVKPGGSLRLSCAASGFTFSSYSMNWVRQAPGKGLEWVSSISSSSSYIYYADSVKGRFTISRDNAKNSLYLQMNSLRAEDTAVYYCARVVDTAMGDAFDIWGQGTMVTVSS
VL: not shown
B7: CA134 (antibody, V domains shown)
VH: B6 VH with V100F, D101G, T102E, A103Q, M104L, G105V, D106S, A107F, I110Y, M116L
VL: EIVMTQSPPGERATLSCRASQSVSSNLAWYQQKPGQAPRLLIYGASTRATGIPARFSGSGSGTEFTLTISSLQSEDFAVYYCQQYNNWPPWTFGQGTKVEIK
B8: CA124 (antibody, V domains shown)
VH: QVQLVESGGGLVKPGGSLRLSCAASGFTFSDYYMSWIRQAPGKGLEWVSYISSSGSTIYYADSVKGRFTISRDNAKNSLYLQMNSLRAEDTAVYYCASGFSSWGADDYWGQGTLVTVSS
VL: HPDDPVSSSLSASVGDRVTITCRASQGISNYLAWFQQKPGKAPKSLIYAASSLQSGVPSKFSGSGSGTDFTLTISSLQPEDFATYYCQQYNSYPLTFGQGTKLEIK
B9: CA128 (antibody, V domains shown)
VH: QVQLVESGGGLVKPGGSLRLSCAASGFTFSDYYMSWIRQAPGKGLEWVSYISSSGSTIYYADSVKGRFTISRDNAKNSLYLQMNSLRAEDTAVYYCARDSGSFVGVFDYWGQGTLVTVSS
VL: not shown
B10: CA131 (antibody, V domains shown)
VH: QLQLQESGSGLVKPSQTLSLTCAVSGGSISSGGYSWSWIRQPPGKGLEWIGYIYHSGSTYYNPSLKSRVTISVDRSKNQFSLKLSSVTAADTAVYYCATGGGHKELGGWGQGTLVTVSS
VL: not shown
B11: CA139 (antibody, V domains shown)
VH: not shown
VL: DIQMTQSPSSLSASVGDRVTITCRASQGISNYLAWFQQKPGKAPKSLIYAASSLQSGVPSKFSGSGSGTDFTLTISSLQPEDFATYYCQQYNSYPLTFGGGTKVEIK
B12: CA123 (antibody, V domains shown)
VH: EVQLVESGGGLVQPGGSLRLSCAASGFTFSSYWMHWVRQAPGKGLVWVSRINSDGSSTSYADSVKGRFTISRDNAKNTLYLQMNSLRAEDTAVYYCARDQGSTSCYYCYYGMDVWGQGTTVTVSS
VL: not shown

Each binder was assayed against soluble HLA-E-VL9, HLA-E*01:03 heavy chain refolded with β2-microglobulin and synthetic VL9 peptide (Homo sapiens, HLA-E*01:03, strain).

| binding result | Kd | Binder |
| --- | --- | --- |
| binds | – | B1 |
| binds | – | B2 |
| binds | – | B3 |
| binds | – | B4 |
| binds | – | B5 |
| binds | – | B6 |
| binds | – | B7 |
| binds | – | B8 |
| binds | – | B9 |
| binds | – | B10 |
| binds | – | B11 |
| – | 3.8 µM | B12 |
